Columns and labels:
[1] = tested on: h00-5 (non-binding control antibody h00 conjugated with compound 5, mp-D-Leu-Ala-Glu-PABC-MMAE)
[2] = tested on: h00-37 (non-binding control antibody h00 conjugated with compound 37, mp-val-cit-PABC-MMAE)
[3] = tested on: h00-7 (non-binding control antibody h00 conjugated with compound 7, mp-Leu-Ala-Glu-PABC-MMAE)

Cathepsin B
percentage of drug cleaved from the heavy chain (3 h at 37 C, pH 4.5, QToF mass spectrometry) [1]: percentage of drug cleaved from the heavy chain of non-targeted ADCs 5 and 7 in vitro by Cathepsin B is similar to that found for non-targeted ADC 37
percentage of drug cleaved from the heavy chain (3 h at 37 C, pH 4.5, QToF mass spectrometry) [2]: percentage of drug cleaved from the heavy chain of non-targeted ADCs 5 and 7 in vitro by Cathepsin B is similar to that found for non-targeted ADC 37
percentage of drug cleaved from the heavy chain (3 h at 37 C, pH 4.5, QToF mass spectrometry) [3]: percentage of drug cleaved from the heavy chain of non-targeted ADCs 5 and 7 in vitro by Cathepsin B is similar to that found for non-targeted ADC 37

neutrophil elastase
percentage of drug cleaved from the heavy chain (3 h at 37 C, QToF mass spectrometry) [1]: no proteolosis of h00-5 by neutrophil elastase was observed
percentage of drug cleaved from the heavy chain (3 h at 37 C, QToF mass spectrometry) [2]: percentage of drug cleaved from the heavy chain of non-targeted ADC 5 in vitro by neutrophil elastase is lower than that found for non-targeted ADC 37
percentage of drug cleaved from the heavy chain (3 h at 37 C, QToF mass spectrometry) [3]: the h00-5 conjugate ... has its heavy chain cleaved by neutrophil elastase to a significantly lower extent than h00-7

Source: patent publication US20230091653
